The source of these data is US20240287202A1 (XYPHOS BIOSCIENCES, published 2024).

One test addresses T1, mouse NKG2D (mouse, UniProt O54709 94-232, limits assumed).
T1 construct: also called mouse wild-type NKG2D
T1 sequence (looked up): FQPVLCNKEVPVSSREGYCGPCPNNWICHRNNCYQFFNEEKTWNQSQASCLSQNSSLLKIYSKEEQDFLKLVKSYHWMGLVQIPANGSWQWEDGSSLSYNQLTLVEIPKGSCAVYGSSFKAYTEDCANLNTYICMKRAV
In words: ELISA on mouse NKG2D, absorbance against nM MicAbody. A general note: ELISA stands for enzyme-linked immunosorbent assay.

The target of test [1] is Fc-wtNKG2D (wild-type NKG2D ectodomain fused to the C-terminus of human IgG1 Fc) (human) (UniProt P26718). The experiment in a line: ELISA; wells coated with Fc-wtNKG2D, R3Mab heavy-chain MicAbody titrated.
Test [2] addresses T2, A1-A2 domain of human MICA*001 with C-terminal 6x-His tag (monomer) (human, UniProt Q29983 24-205).
T2 construct: range 24-205; also called MIC-His ligand
T2 sequence: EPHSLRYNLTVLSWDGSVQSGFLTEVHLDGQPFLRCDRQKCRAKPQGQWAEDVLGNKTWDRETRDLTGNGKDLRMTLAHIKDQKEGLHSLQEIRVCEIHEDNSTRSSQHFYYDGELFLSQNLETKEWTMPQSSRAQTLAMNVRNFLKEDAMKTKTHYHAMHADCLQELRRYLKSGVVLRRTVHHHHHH
In words: Octet BLI; Fc-wtNKG2D captured on anti-human IgG Fc (AHC) tips, dilution series of His-tagged monomeric ligand. An excerpt: Note that all axes are to the same scale (Binding-0 nm, 0.4 nm. 0.8 nm, 1.2 nm (y-axis); Time-0 s, 50 s, 100 s, 150 s, 200 s, 250 s, 300 s, 350 s (x-axis). Data is representative of a single experiment.

In test [3] the target is T3, His-tagged monomeric ULBP2 R81W (human, UniProt Q9BZM5 29-212).
T3 construct: range 29-212; Construct limits are stated only for wild-type ULBP2-His; position 81 counts on the mature protein, not on the UniProt entry
T3 sequence: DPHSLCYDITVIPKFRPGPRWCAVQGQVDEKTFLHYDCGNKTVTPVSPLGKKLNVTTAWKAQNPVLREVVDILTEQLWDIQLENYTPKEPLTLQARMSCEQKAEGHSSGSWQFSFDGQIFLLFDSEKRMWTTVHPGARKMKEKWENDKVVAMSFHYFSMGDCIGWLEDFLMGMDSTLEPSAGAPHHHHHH
In words: Octet BLI; Fc-wtNKG2D captured on AHC tips, dilution series of His-tagged monomeric ligand. The text has this: (§1) YA. […] YA were captured with anti-human IgG Fc capture (AHC) biosensor tips then associated with a dilution series of ligand. Data are from single experiments.
A general note: In BLI a coated tip is dipped into the sample, and binding shifts an interference pattern.

Test [4] has as its target T4, A1-A2 domain of human ULBP2 with C-terminal 6x-His tag (monomer) (human, UniProt Q9BZM5 29-212).
T4 construct: range 29-212; also called wild-type ULBP2; MIC-His ligand
T4 sequence: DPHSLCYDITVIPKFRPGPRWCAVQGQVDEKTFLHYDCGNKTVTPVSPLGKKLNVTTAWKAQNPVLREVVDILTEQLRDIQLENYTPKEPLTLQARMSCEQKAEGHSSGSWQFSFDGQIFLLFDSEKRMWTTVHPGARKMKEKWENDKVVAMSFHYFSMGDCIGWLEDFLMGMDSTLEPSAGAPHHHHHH
The test is described as above.
From the text: as §1

The next test concerns the target T5, ULBP1-Fc (R&D Systems) (human, UniProt Q9BZM6 26-216).
T5 construct: Bought; also called Ligand-Fc fusion; not shown: Fc of the bought fusion; not described
T5 sequence (looked up): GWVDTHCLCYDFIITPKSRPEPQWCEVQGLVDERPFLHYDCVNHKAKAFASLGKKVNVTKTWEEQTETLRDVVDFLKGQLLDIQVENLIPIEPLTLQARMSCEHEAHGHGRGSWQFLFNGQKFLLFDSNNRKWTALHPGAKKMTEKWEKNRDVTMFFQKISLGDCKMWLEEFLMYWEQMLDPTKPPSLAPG
In words: ELISA; ligand-Fc coated, biotinylated Fc-wtNKG2D, streptavidin-HRP (legend: the Fc-NKG2D is titrated; axis on the sheet: nM ligand-Fc).

A further test deals with T6, MICB-Fc (R&D Systems) (human, UniProt Q29980 23-298, limits assumed).
T6 construct: Bought; also called Ligand-Fc fusion; not shown: Fc of the bought fusion; not described
T6 sequence (looked up): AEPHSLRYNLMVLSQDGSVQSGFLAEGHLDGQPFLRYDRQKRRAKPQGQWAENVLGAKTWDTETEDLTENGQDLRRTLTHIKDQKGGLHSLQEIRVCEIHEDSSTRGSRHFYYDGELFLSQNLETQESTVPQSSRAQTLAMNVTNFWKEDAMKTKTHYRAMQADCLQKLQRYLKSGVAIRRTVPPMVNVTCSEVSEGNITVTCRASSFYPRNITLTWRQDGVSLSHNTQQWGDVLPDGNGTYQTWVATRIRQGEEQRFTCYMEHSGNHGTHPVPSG
The description is as above.

Another test addresses T7, ULBP3-Fc (R&D Systems) (human, UniProt Q9BZM4 30-217).
T7 construct: Bought; also called Ligand-Fc fusion; not shown: Fc of the bought fusion; not described
T7 sequence (looked up): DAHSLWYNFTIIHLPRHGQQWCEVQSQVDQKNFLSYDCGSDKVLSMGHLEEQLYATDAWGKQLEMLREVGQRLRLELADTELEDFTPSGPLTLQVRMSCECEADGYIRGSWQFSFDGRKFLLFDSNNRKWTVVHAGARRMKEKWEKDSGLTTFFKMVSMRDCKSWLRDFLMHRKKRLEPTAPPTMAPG
The test is described as above.

The next test deals with T8, MICA-Fc (R&D Systems) (human, UniProt Q29983 24-308, limits assumed).
T8 construct: Bought; also called Ligand-Fc fusion; not shown: Fc of the bought fusion; not described
T8 sequence (looked up): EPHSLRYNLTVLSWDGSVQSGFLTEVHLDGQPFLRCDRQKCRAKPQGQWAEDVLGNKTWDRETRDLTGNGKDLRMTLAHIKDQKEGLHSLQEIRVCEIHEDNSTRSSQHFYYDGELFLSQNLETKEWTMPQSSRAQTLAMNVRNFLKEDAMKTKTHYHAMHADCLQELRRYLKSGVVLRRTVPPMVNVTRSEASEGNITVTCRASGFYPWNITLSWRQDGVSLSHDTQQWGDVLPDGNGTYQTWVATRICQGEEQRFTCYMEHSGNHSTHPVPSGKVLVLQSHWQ
The description is as above.

Test [5] deals with T9, A1-A2 domain of human MICB with C-terminal 6x-His tag (monomer) (human, UniProt Q29980 24-205).
T9 construct: range 24-205; also called MIC-His ligand
T9 sequence: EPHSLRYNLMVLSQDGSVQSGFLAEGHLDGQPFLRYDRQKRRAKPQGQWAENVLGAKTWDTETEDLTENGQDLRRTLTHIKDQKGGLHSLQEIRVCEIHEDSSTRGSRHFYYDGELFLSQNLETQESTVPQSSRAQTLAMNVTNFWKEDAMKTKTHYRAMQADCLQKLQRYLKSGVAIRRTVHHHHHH
The experiment in a line: Octet BLI, response against concentration (legend: monomeric ligands; axis on the sheet: nM Fc-NKG2D.wt).

Test [6] concerns the target T10, A1-A2 domain of human ULBP3 with C-terminal 6x-His tag (monomer) (human, UniProt Q9BZM4 30-212).
T10 construct: range 30-212; also called MIC-His ligand
T10 sequence: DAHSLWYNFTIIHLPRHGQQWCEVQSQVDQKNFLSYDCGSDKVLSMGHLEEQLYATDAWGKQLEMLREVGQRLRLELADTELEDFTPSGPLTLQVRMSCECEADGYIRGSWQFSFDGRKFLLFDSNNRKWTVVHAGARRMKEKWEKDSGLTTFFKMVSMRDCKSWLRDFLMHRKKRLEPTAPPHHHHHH
The test is described as above.

Test [7] addresses Fc-iNKG2D.YA (NKG2D ectodomain Y152A fused to the C-terminus of human IgG1 Fc) (human) (UniProt P26718). The experiment in a line: ELISA; wells coated with Fc-iNKG2D.YA, R3Mab heavy-chain MicAbody titrated.
Test [8] concerns the target T11, Fc-iNKG2D.YA (NKG2D ectodomain Y152A fused to the C-terminus of human IgG1 Fc) (human, UniProt P26718 78-216).
T11 construct: range 78-216; it is not tied by words to this Fc fusion; not shown: human IgG1 Fc
T11 sequence: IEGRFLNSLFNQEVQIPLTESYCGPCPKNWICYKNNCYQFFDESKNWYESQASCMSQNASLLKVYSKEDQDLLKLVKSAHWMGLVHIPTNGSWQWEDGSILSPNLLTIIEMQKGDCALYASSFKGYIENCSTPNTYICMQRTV
The experiment in a line: Octet BLI; Fc-iNKG2D.YA captured on AHC tips, two-fold dilution series of MicAbody from 50 nM. The text has this:
The y-axes corresponding to binding responses were set to the same scale for all sensograms.

The target in test [9] is T11, Fc-iNKG2D.YA (NKG2D ectodomain Y152A …). The experiment in a line: ELISA; wells coated with Fc-iNKG2D.YA, Rituximab.LC-U2S3 titrated, HRP anti-human kappa.

As usually defined, the EC50 (read off the curve) is the concentration that produces a half-maximal response. A high value points to a less potent agent. In the test with mouse NKG2D, “Trastuzumab.LC-Rae1b (bispecific antibody)” came in with an EC50 (read off the curve) of 1 nM.

B1: R3Mab (anti-FGFR3) heavy-chain C-terminal fusion of wild-type ULBP2 (MicAbody) (bispecific antibody, part only; not given: R3Mab variable regions and Fc, IgG1, not shown: a dimerising Fc or GST)
heavy, part: GGGSDPHSLCYDITVIPKFRPGPRWCAVQGQVDEKTFLHYDCGNKTVTPVSPLGKKLNVTTAWKAQNPVLREVVDILTEQLRDIQLENYTPKEPLTLQARMSCEQKAEGHSSGSWQFSFDGQIFLLFDSEKRMWTTVHPGARKMKEKWENDKVVAMSFHYFSMGDCIGWLEDFLMGMDSTLEPSAG
With B1, the EC50 (read off the curve) in test [1] stood at 0.4 nM.

B2: R3Mab (anti-FGFR3) heavy-chain C-terminal fusion of ULBP2 R81W (MicAbody) (bispecific antibody, part only; not given: R3Mab variable regions and Fc, IgG1, not shown: a dimerising Fc or GST)
heavy, part: GGGSDPHSLCYDITVIPKFRPGPRWCAVQGQVDEKTFLHYDCGNKTVTPVSPLGKKLNVTTAWKAQNPVLREVVDILTEQLWDIQLENYTPKEPLTLQARMSCEQKAEGHSSGSWQFSFDGQIFLLFDSEKRMWTTVHPGARKMKEKWENDKVVAMSFHYFSMGDCIGWLEDFLMGMDSTLEPSAG
For the molecule B2, in test [1], the EC50 (read off the curve) was found to be 0.02 nM.

B3: Fc-wtNKG2D (wild-type NKG2D ectodomain fused to the C-terminus of human IgG1 Fc) (Fc fusion)
chain: IEGRFLNSLFNQEVQIPLTESYCGPCPKNWICYKNNCYQFFDESKNWYESQASCMSQNASLLKVYSKEDQDLLKLVKSYHWMGLVHIPTNGSWQWEDGSILSPNLLTIIEMQKGDCALYASSFKGYIENCSTPNTYICMQRTV
notes: range 78-216; Dimeric secreted protein from Expi293 cells; also called Fc-NKG2D; not shown: human IgG1 Fc
A word on the Kd: it is the constant that tells how readily two partners part at equilibrium. Consider B3, for which the binding result (in test [2]; with ULBP1-Fc (R&D Systems); with MICB-Fc (R&D Systems); in the test with ULBP3-Fc (R&D Systems); in the test with MICA-Fc (R&D Systems); in [5]) was “binds” throughout. The binding result in test [6] is “binds”. The figures for the Kd in [3] and in test [4] were 8 nM and 350 nM, respectively.

B4: R3Mab (anti-FGFR3) heavy-chain C-terminal fusion of U2S3 (MicAbody) (bispecific antibody, part only; not given: R3Mab variable regions and Fc, IgG1, not shown: a dimerising Fc or GST)
heavy, part: GGGSEPHSLSYDITVIPKFRPGPRWCAVQGQVDEKTFLHYDCGQKTVTPVSPLGKKLQVTTAWKAQNPVLREVVDILTEQLWDIQLENYTPKEPLTLQARMSCEQKAEGHSSGSWQFSFDGQIFLLFDSEKRMWTTVHPGARKMKEKWENDKVVATKLYLWSMGDCIGWLEDFLMGMDSTLEPS
In [7], B4 displayed an EC50 (read off the curve) of 0.02 nM.

B5: Rituximab.LC-U2S3 MicAbody (U2S3 A1-A2 domain fused to the C-terminus of the rituximab kappa light chain) (bispecific antibody)
heavy: QVQLQQPGAELVKPGASVKMSCKASGYTFTSYNMHWVKQTPGRGLEWIGAIYPGNGDTSYNQKFKGKATLTADKSSSTAYMQLSSLTSEDSAVYYCARSTYYGGDWYFNVWGAGTTVTVSAA
light (part 1 of 2): QIVLSQSPAILSASPGEKVTMTCRASSSVSYIHWFQQKPGSSPKPWIYATSNLASGVPVRFSGSGSGTSYSLTISRVEAEDAATYYCQQWTSNPPTFGGGTKLEIK
light (part 2 of 2): APTSSSGGGGSEPHSLSYDITVIPKFRPGPRWCAVQGQVDEKTFLHYDCGQKTVTPVSPLGKKLQVTTAWKAQNPVLREVVDILTEQLWDIQLENYTPKEPLTLQARMSCEQKAEGHSSGSWQFSFDGQIFLLFDSEKRMWTTVHPGARKMKEKWENDKVVATKLYLWSMGDCIGWLEDFLMGMDSTLEPS
notes: also called Rit-S3; Ritux-S3; not shown: human IgG1 heavy-chain constant region, ADCC-deficient; human kappa light-chain constant region
On to B5, for which binding in test [8] was characterised by a dissociation constant (Kd) of 0.01 nM. Further, the “EC50 (read off the curve)” value in test [9] was approximately 0.03 nM.
